Numbering of substitutions follows the chain as printed.

Chain of TRANK1 (beta, as listed by the source limits assumed, chain 3 of 2, other chains not shown): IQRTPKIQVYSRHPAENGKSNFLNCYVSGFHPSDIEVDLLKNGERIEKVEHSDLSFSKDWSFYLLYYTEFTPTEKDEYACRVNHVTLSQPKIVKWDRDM
Chain of AGFG2 (beta, as listed by the source limits assumed, chain 3 of 2, other chains not shown): as above
Chain of DPYSL2 (beta, as listed by the source limits assumed, chain 3 of 2, other chains not shown): as above

B1: Molecule B (bispecific antibody, V domains shown)
VH 1: YPQLVESGGGLVKPGGSLRLSCAARYPFTRLDMSWVRQAPGKGLEWVGSISPKGGSTYYNDNVLGRFTISRDNSKNTLYLQMNSLRAEDTAVYYCARDWGFFDNWGQGTLVTVSS
VL 1: AIQMTQSPSSLSASVGDRVTITCRASQSISNYLAWYQQKPGKAPKLLIYNASHPEYDVPSRFSGSGSGTDFTLTISSLQPEDFATYYCQQYSSHPYTFGQGTKLEIK
VH 2: not shown
VL 2: QAVVTQEPSLTVSPGGTVTLTCGSSTGAVTTSNYANWVQEKPGQAFRGLIGGTNKRAPGTPARFSGSLLGGKAALTLSGAQPEDEAEYYCALWYSNLWVFGGGTKLTVL
For B1, the % of MAGE-A4 signal, Jurkat-NFAT; grey (>2%) turned out to be 5.19% with DPYSL2, 7.67% with TRANK1 and 13.3% with AGFG2.

B2: Molecule A (bispecific antibody, V domains shown)
VH 1: B1 VH 1 with P2V, R25P, Y26L, R30G, N104L
VL 1: B1 VL 1 with N50D, S52N, H53A, P54H, Y56N
VH 2: not shown
VL 2: B1 VL 2
For the molecule B2, the % of MAGE-A4 signal, Jurkat-NFAT; grey (>2%) with TRANK1 came to 4.56%; in the test with AGFG2, 86.5%.

These data come from patent US20260098095A1.
